Measured values taken from patent publication US20190367560A1.
Blank lines part the entries; values can stand above or below the molecule they belong to. Bridges are numbered along the chain shown (N, C = ends). Primed or numbered codes have the meaning given here. Where no end group is shown, it is not given here. [ ]: non-standard residue; d: D form. The star is where a group is joined. Biotin = O=C1N[C@H]2[C@H](CS[C@H]2CCCCC(=O)*)N1; Fmoc = O=C(OCC1c2ccccc2-c2ccccc21)*; PEG4′ = not defined here

How the values were obtained:
[1] = target: IgG; assay: SPR (BIAcore T200), equilibrium value
[2] = target: IgG; assay: SPR (BIAcore T200), 1:1 binding fit
[3] = target: human serum-derived γ-globulin (Wako) (human); assay: dynamic binding capacity at 10% breakthrough; Protein A support; residence time 5 min
[4] = target: human serum-derived γ-globulin (Wako) (human); assay: dynamic binding capacity at 10% breakthrough; Protein A support; residence time 2.5 min
[5] = target: human serum-derived γ-globulin (Wako) (human); assay: dynamic binding capacity at 10% breakthrough; Protein A support; residence time 1 min
[6] = target: human serum-derived γ-globulin (Wako) (human); assay: DBC at 1 mL/min, 1 mg peptide column, after 0 cycles of 0.1 M NaOH washing
[7] = target: human serum-derived γ-globulin (Wako) (human); assay: DBC at 1 mL/min, 1 mg peptide column, after 1 cycle of 0.1 M NaOH washing
[8] = target: human serum-derived γ-globulin (Wako) (human); assay: dynamic binding capacity at 10% breakthrough; 10 mg peptide on 1-mL column; residence time 1 min
[9] = target: human serum-derived γ-globulin (Wako) (human); assay: DBC at 1 mL/min, 1 mg peptide column, after 2 cycles of 0.1 M NaOH washing
[10] = target: human serum-derived γ-globulin (Wako) (human); assay: dynamic binding capacity at 10% breakthrough; 1 mg peptide on 1-mL column; residence time 2.5 min
[11] = target: human serum-derived γ-globulin (Wako) (human); assay: dynamic binding capacity at 10% breakthrough; 10 mg peptide on 1-mL column; residence time 2.5 min
[12] = target: human serum-derived γ-globulin (Wako) (human); assay: DBC at 1 mL/min, 1 mg peptide column, after 5 cycles of 0.1 M NaOH washing
[13] = target: human serum-derived γ-globulin (Wako) (human); assay: dynamic binding capacity at 10% breakthrough; 4 mg peptide on 1-mL column; residence time 2.5 min
[14] = target: human serum-derived γ-globulin (Wako) (human); assay: DBC at 1 mL/min, 1 mg peptide column, after 3 cycles of 0.1 M NaOH washing
[15] = target: human serum-derived γ-globulin (Wako) (human); assay: dynamic binding capacity at 10% breakthrough; 4 mg peptide on 1-mL column; residence time 1 min
[16] = target: human serum-derived γ-globulin (Wako) (human); assay: dynamic binding capacity at 10% breakthrough; 1 mg peptide on 1-mL column; residence time 5 min
[17] = target: human serum-derived γ-globulin (Wako) (human); assay: dynamic binding capacity at 10% breakthrough; 4 mg peptide on 1-mL column; residence time 5 min
[18] = target: human serum-derived γ-globulin (Wako) (human); assay: DBC at 1 mL/min, 1 mg peptide column, after 4 cycles of 0.1 M NaOH washing
[19] = target: human serum-derived γ-globulin (Wako) (human); assay: dynamic binding capacity at 10% breakthrough; 1 mg peptide on 1-mL column; residence time 1 min
[20] = target: human serum-derived γ-globulin (Wako) (human); assay: dynamic binding capacity at 10% breakthrough; 10 mg peptide on 1-mL column; residence time 5 min
[21] = target: IgG; assay: SPR as in Example 1 (BIAcore T200, IgG immobilized)

Kd [1]: 2800 nM | Kd [2]: 2700 nM
Molecule: GPDCAYH(Xaa1)…-NH2 (SEQ ID NO:2, wherein Xaa1 is acetylated lysine), N-terminus blocked with biotinylated PEG4, intramolecular S-S bond (peptide)

Kd [1]: 131 nM | Kd [2]: 156 nM
Molecule: GPDCAYH(Xaa1)…-NH2 (SEQ ID NO:2, wherein Xaa1 is lysine), N-terminus blocked with biotinylated PEG4, intramolecular S-S bond (peptide)

DBC [3]: 43.7 | DBC [4]: 24.3 | DBC [5]: 10
Molecule: commercially available Protein A support MabSelect (GE Healthcare) (from UniProt P38507 37-327)

DBC 10% [6]: 4.8 mg/mL | DBC 10% (% NaOH washing cycle 0) [6]: 100% | DBC 10% [7]: 4.8 mg/mL | DBC 10% (% NaOH washing cycle 0) [7]: 100% | DBC [8]: 23.1 | DBC 10% [9]: 4.9 mg/mL | DBC 10% (% NaOH washing cycle 0) [9]: 102% | DBC [10]: 3.4 | DBC [11]: 29.5 | DBC 10% [12]: 4.7 mg/mL | DBC 10% (% NaOH washing cycle 0) [12]: 97.9% | DBC [13]: 15.8 | DBC 10% [14]: 4.8 mg/mL | DBC 10% (% NaOH washing cycle 0) [14]: 100% | DBC [15]: 12.1 | DBC [16]: 7 | DBC [17]: 23.1 | DBC 10% [18]: 4.8 mg/mL | DBC 10% (% NaOH washing cycle 0) [18]: 100% | DBC [19]: 2.3 | DBC [20]: 31.4
Molecule: [PEG4′]GPDCAYHRGELVWCTFH-NH2 (linker 5-15 via 1,3‑dichloro‑2‑propanone)

Kd [1]: 64.5 nM | Kd [2]: 54 nM
Molecule: {Biotin-PEG4′}-DCAYHRGELVWCT-NH2 (disulfide 2-12 (inferred))

Kd [2]: 8.1 nM
Molecule: {Biotin-PEG4′}-GPDCAYHLGELVWCTFH-NH2 (disulfide 4-14 (inferred))

Kd [21]: 1000 nM
Molecule: {Fmoc-PEG4′}-GPDCAYHRGELVWCTFH-NH2 (linker 4-14 via thiocarbonyldiimidazole)

Kd [1]: 56 nM | Kd [2]: 42 nM
Molecule: {Biotin-PEG4′}-GPRCAYHRGELVWCSFH-NH2 (disulfide 4-14 (inferred))

Kd [1]: 10 nM | Kd [2]: 9.1 nM
Molecule: {Biotin-PEG4′}-GPDCAYHRGELVWCTFH-NH2 (disulfide 4-14 (inferred))
